Experimental findings from patent publication US9150630B2, “Use of Idbf” (Industry-Academic Cooperation Foundation, Yonsei University, priority 2008, dated 2015) are described below.

In one data set the test system is HEK293 cells. The experiment in a line: Introduction of FITC-labelled PTD-DBMP into HEK293 cells (fluorescence microscopy). The conditions noted are these: 1 μM or 4 μM peptide, 3 hours, FIG. 21. In kind it is cell-based, human. The method, then: To confirm the introduction of two PTD-DBMP into cells, HEK293 cells were seeded and incubated on gelatin-coated glasses for one day, and then 1 μM or 4 μM peptide were treated on the cells. After 3 hours, the cells were washed with PBS, and then fixed using fixative solution (99% methanol and 1% formaldehyde). Nucleus of cells were counterstained using DAPI, and the cells were observed using ECLIPSE TE2000-U microscope.

Another data set relates to Wnt/β-catenin signaling. Description: β-catenin immunoblotting of PTD-DBMP treated HEK293 cells. In kind it is cell-based, human. The note with it: 1 μM or 4 μM PTD-DBMP, 12 hours, FIG. 22. The method, then: To investigate the effect of PTD-DBMP in the cells, HEK293 cells were incubated with 1 μM or 4 μM PTD-DBMP for 12 hours, and then the cell lysates were subjected into immunoblotting using anti-β-catenin, and anti-α-tubulin antibodies.
Background: A western blot detects proteins with antibodies after separation by electrophoresis.

In data set [1] the test system is Wnt/β-catenin pathway in MC3T3E1 cells. The experiment in a line: Immunocytochemistry of PTD-DBMP treated MC3T3E1 cells. Format: cell-based. The note with it: 5 μM or 10 μM, 12 hours, FIG. 23. Here is the method:
PTD-DBMP (SEQ ID NO: 26) was treated into MC3T3E1 cells, and then the introduction and effect of PTD-DBMP were monitored by immunocytochemistry analyses. MC3T3E1 cells were incubated on gelatin-coated glasses for 1 day, and then 5 μM or 10 μM PTD-DBMP were treated on the incubated cells for 12 hours. The PTD-DBMP-treated cells were washed with PBS, and then fixed using a fixative solution (99% methanol and 1% formaldehyde). The fixed cells were permeabilized with 0.2% saponin solution, and then incubated with anti-β-catenin antibody (home-made; 1:100). The cells were incubated with Alexafluor 488 conjugated secondary antibody, and then the nucleus of cells were counterstained with DAPI.

Data set [2] concerns Wnt/β-catenin pathway. The experiment in a line: pTOPFLASH/pFOPFLASH luciferase reporter assay in MC3T3E1 cells. Format: cell-based. The note with it: 5 μM PTD-DBMP or 100 ng/ml Wnt3a, 12 hours, FIG. 24. The method, then: To investigate the effect of PTD-DBMP treatment on Wnt/β-catenin pathway of MC3T3E1 cells, 0.5 μg of pTOPFLASH or pFOPFLASH with 50 ng of pCMV-β-Gal was transfected into the cells. After 12 hours, the transfected cells were treated with 100 ng/ml Wnt3a, or 5 μM PTD-DBMP, and then incubated for 12 hours. Then the cells were washed with PBS, and then lysed in Lysis Buffer (Promega). The cell lysates were mixed with Luciferase Substrate (Promega) to monitor the luciferase activities.

Data set [3] concerns MC3T3E1 cells (osteoblast differentiation). Description: RT-PCR of osteoblast differentiation markers in MC3T3E1 cells. In kind it is cell-based. The note with it: 10 μM PTD-DBMP or 100 ng/ml Wnt3a, 2 and 4 days, FIG. 25. The method, then:
To study the effect of PTD-DBMP on osteoblast differentiation, 100 ng/ml Wnt3a, or 10 μM PTD-DBMP was treated on MC3T3E1 cells. The cells were harvested after 2, and 4 days later, and then subjected into RT-PCR to monitor the amounts of ALP, Fgf18, RANKL, and HPRT mRNAs. The mRNA amounts of osteoblast differentiation markers (ALP, Fgf18, RANKL) were increased by PTD-DBMP treatment, as well as by Wnt3a treatment (FIG. 25).

The test system of the next data set is β-catenin. The experiment in a line: Idbf overexpression or knock-down in HEK293 cells: β-catenin immunoblot and TOPFLASH reporter. In kind it is cell-based, human. The conditions noted are these: FIG. 5; for transcriptional activity of β-catenin: pTOPFLASH/pFOPFLASH luciferase; for protein level of β-catenin: transfection, immunoblotting. The method, then: 0.9 kb PCR product was restricted with XbaI and BamHI, and subcloned into a pcDNA3.1/myc His(−) vector (Invitrogen) (pcDNA3.1-Idbf-Myc). Idbf overexpression was performed by transfection of pcDNA3.1-Idbf-Myc into HEK293 cells using Lipofectamine plus reagent (Invitrogen) as the manufacturers' instruments.
Idbf knock-down was performed by transfection of Idbf siRNA into HEK293 cells using Lipofectamine plus reagent (Invitrogen) as the manufacturers' instruments. Idbf siRNA was synthesized using Silence™ siRNA Construction Kit (Ambion). To elevate the efficiency of knock-down, the mixture of two kinds of siRNAs, which are targeting different site of Idbf mRNA, were used.
For immunoblotting, cells were harvested, and lysed in RIPA buffer (50 mM Tris pH 7.5, 150 mM NaCl, 1 mM EDTA, and 1% Triton X-100). All chemicals were purchased from Sigma-Aldrich.
To detect proteins, whole cell lysates or immunoprecipitants were subjected into immunoblotting using anti-β-catenin, anti-Myc, or anti-α-tubulin antibodies. To monitor the transcriptional activity of β-catenin, 0.5 μg of pTOPFLASH or pFOPFLASH (kind gill from Dr. B. Vogelstein and Dr. K. Kinzler in Johns Hopkins Oncology Center, Baltimore, Md.) with 50 ng of pCMV-β-Gal was transfected into HEK293 cells. The luciferease activities, which indicate the transcriptional activity of β-catenin, were normalized by β-galactosidase activities, which show the efficiency of transfection. […] Oppositely, the protein level of β-catenin and its transcriptional activity were increased by Idbf knock-down (FIG. 5B). Error bars in FIG. 5 indicates standard deviation. WCL and IP are abbreviations of whole cell lysate and immunoprecipitation, respectively.

The test system of data set [4] is Wnt/β-catenin pathway and osteoblast differentiation in MC3T3E1 cells. Description: Idbf overexpression and Wnt3a treatment in MC3T3E1 cells, RT-PCR. The conditions noted are these: FIG. 17C; for ALP and Fgf18 mRNA: 100 ng/ml Wnt3a 12 hours, or ascorbic acid and β-glycerol-phosphate 2 days. In kind it is cell-based. The method, then: Idbf was overexpressed in MC3T3E1 cells to investigate the function of Idbf in Wnt/β-catenin pathway and osteoblast differentiation. MC3T3E1 cells were transfected with pcDNA3.1 or pcDNA3.1-Idbf-Myc, and then transfected cells were incubated in α-MEM media containing 100 ng/ml Wnt3a for 12 hours or in α-MEM containing 50 mg/l ascorbic acid and 10 mM […] for 2 days. Wnt3a treatment results in mRNA increments of ALP and Fgf18, which were more significant than ascorbic acid and β-glycerol-phosphate treatment (FIG. 17C). […] However, the common target genes of Wnt/β-catenin pathway, cyclin D and c-myc were not regulated by Wnt3a or ascorbic acid and β-glycerol-phosphate treatment (FIG. 17C).

The target of a further data set is T1, Dvl-1 (Mus musculus, UniProt P51141).
T1 construct: endogenous in cells; host or cells: MC3T3E1 osteoblasts
T1 sequence (P51141 1-695): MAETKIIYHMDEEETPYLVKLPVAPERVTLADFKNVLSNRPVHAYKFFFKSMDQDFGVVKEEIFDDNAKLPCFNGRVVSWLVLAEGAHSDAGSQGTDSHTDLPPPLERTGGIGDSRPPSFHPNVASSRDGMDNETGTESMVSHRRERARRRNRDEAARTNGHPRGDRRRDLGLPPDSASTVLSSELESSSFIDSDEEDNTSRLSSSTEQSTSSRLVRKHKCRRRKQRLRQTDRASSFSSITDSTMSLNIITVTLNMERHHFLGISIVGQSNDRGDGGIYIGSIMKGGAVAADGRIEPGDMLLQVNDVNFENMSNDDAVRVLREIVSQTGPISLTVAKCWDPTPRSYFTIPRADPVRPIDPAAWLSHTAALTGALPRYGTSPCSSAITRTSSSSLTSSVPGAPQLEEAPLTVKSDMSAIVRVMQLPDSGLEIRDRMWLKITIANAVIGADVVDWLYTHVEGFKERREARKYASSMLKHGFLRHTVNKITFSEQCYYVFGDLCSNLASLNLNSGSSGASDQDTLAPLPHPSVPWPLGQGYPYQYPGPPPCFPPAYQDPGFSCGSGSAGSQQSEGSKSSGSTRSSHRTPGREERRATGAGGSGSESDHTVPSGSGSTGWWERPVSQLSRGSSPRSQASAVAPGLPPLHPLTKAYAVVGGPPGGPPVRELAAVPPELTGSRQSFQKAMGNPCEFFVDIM
The experiment in a line: Idbf-Dvl-1 binding by immunoprecipitation with anti-Idbf antibody. The conditions noted are these: with or without Wnt3a, FIG. 18B (MC3T3E1 osteoblast). From the text: To investigate the importance of Idbf-Dvl-1 binding in Idbf function, a mutant of Idbf, in which Dvl binding minimal peptide (DBMP; RKTGHQICKFRKC, SEQ ID NO: 4) was removed, was produced (pcDNA3.1-Idbf-ΔDBMP-Myc).
To monitor Idbf-Dvl-1 binding, cell lysates were subjected into immunoprecipitation using anti-Idbf antibody. Whole cell lysates were subjected into immunoblotting to detect the amounts of proteins, including β-catenin, α-tubulin, and Dvl-1.

Data set [5] has as its system Wnt/β-catenin pathway. The experiment in a line: Wnt3a treatment and Idbf overexpression in HEK293 cells (reporter assay, Idbf-Dvl-1 binding). Format: cell-based, human. The note with it: for effect on Wnt/β-catenin pathway in HEK293 cells: 100 ng/ml Wnt3a 12 hours or 0.5 μg plasmid, FIG. 19. Here is the method: Function of Idbf in Wnt/β-catenin pathway was also studied in HEK293 cells, which is a established human embryonic kidney cell-line. HEK293 cells were transfected with 0.5 μg pcDNA3.1 or pcDNA3.1-Idbf-Myc. For reporter assay, 0.5 μg pTOPFLASH or pFOPFLASH with 50 ng pCMV-β-Gal was co-transfected. The transfeced cells were incubated in α-MEM with or without 100 ng/ml Wnt3a for 12 hours. […] The enhancement of Idbf-Dvl-1 binding by Wnt3a treatment was also not observed (FIG. 20).

Primed or numbered codes have the meaning given here. Ends that are not written are not given here. FITC′ = not defined here

As for “PTD-DBMP: PTD and glycine linker on the amino terminus of DBMP, FITC on the carboxyl terminus; two peptides in section 7, SEQ ID NO: 26 in section 8 (RRRRRRRRGGGGRKTGHQICKFRKCK-{FITC′}; cysteine pairing not given here)”, the “introduction of peptide into cells (green fluorescence in nucleus and cytosol)” value in the data set with HEK293 cells was “successfully introduced into the cells”. Also, the “amount of β-catenin” value in the data set on Wnt/β-catenin signaling was “increased”. In data set [1], the “activation of Wnt/β-catenin pathway (β-catenin in nucleus)” value is reported as “accumulation of β-catenin (red) in nucleus of the cells”; the “introduction of peptide into cells (green fluorescence by FITC on nucleus and cytosol)” value is reported as “successfully introduced into the cells”. In addition, the “activation of Wnt/β-catenin pathway (luciferase activity normalized by β-galactosidase)” value with Wnt/β-catenin pathway [2] is on record as “as significant as the activation by Wnt3a treatment”. Also, the “mRNA amounts of osteoblast differentiation markers (ALP, Fgf18, RANKL)” value in data set [3] is recorded as “increased”.

B1: Idbf: novel Dvl-binding protein (SEQ ID NO: 1), overexpressed by transfection of pcDNA3.1-Idbf-Myc (protein, listed as Homo sapiens)
chain: MSSLGGGSQDAGGSSSSSTNGSGGSGSSGPKAGAADKSAVVAAAAPASVADDTPPPERRNKSGIISEPLNKSLRRSRPLSHYSSFGSSGGSGGGSMMGGESADKATAAAAAASLLANGHDLAAAMAVDKSNPTSKHKSGAVASLLSKAERATELAAEGQLTLQQFAQSTEMLKRVVQEHLPLMSEAGAGLPDMEAVAGAEALNGQSDFPYLGAFPINPGLFIMTPAGVFLAESALHMAGLAEYPMQGELASAISSGKKKRKRCGMCAPCRRRINCEQCSSCRNRKTGHQICKFRKCEELKKKPSAALEKVMLPTGAAFRWFQ
modifications: Myc tag
Turning to B1, in the data set with β-catenin, the “transcriptional activity of β-catenin” value was “reduced” and the “protein level of β-catenin” value is given as “reduced”. In data set [4], the “ALP and Fgf18 mRNA” value is “suppressed increment”. The “binding to Dvl-1” value with Dvl-1 is on record as “binds to Dvl-1 in Wnt3a-dependent manner”. The “effect on Wnt/β-catenin pathway in HEK293 cells” value with Wnt/β-catenin pathway [5] was “very marginal”.

B2: Idbf siRNA: mixture of two siRNAs targeting different sites of Idbf mRNA (SEQ ID NO: 12-15) (nucleic acid)
chain 1: UUGUAGGAAUCGAAAGACUUU
chain 2: AGUCUUUCGAUUCCUACAAUU
chain 3: GCAGUUUGCGCAGUCCACAUU
chain 4: UGUGGACUGCGCAAACUGCUU
modifications: listed as RNA, chemistry not given here
For B2, in the data set with β-catenin, the “transcriptional activity of β-catenin” value is listed as “increased” and the “protein level of β-catenin” value is recorded as “increased”.

B3: Wnt3a: Wnt ligand used at 100 ng/ml to activate the Wnt/β-catenin signaling pathway (protein, UniProt P56704 19-352, looked up)
Protein Wnt-3a: SYPIWWSLAVGPQYSSLGSQPILCASIPGLVPKQLRFCRNYVEIMPSVAEGIKIGIQECQHQFRGRRWNCTTVHDSLAIFGPVLDKATRESAFVHAIASAGVAFAVTRSCAEGTAAICGCSSRHQGSPGKGWKWGGCSEDIEFGGMVSREFADARENRPDARSAMNRHNNEAGRQAIASHMHLKCKCHGLSGSCEVKTCWWSQPDFRAIGDFLKDKYDSASEMVVEKHRESRGWVETLRPRYTYFKVPTERDLVYYEASPNFCEPNPETGSFGTRDRTCNVSSHGIDGCDLLCCGRGHNARAERRREKCRCVFHWCCYVSCQECTRVYDVHTCK
B3: the “activation of Wnt/β-catenin pathway (luciferase activity normalized by β-galactosidase)” value with Wnt/β-catenin pathway [2] is reported as “activation”. For the same molecule, in data set [3], the “mRNA amounts of osteoblast differentiation markers (ALP, Fgf18, RANKL)” value was “increased”. In addition, the “cyclin D and c-myc (common target genes of Wnt/β-catenin pathway)” value in data set [4] (100 ng/ml Wnt3a 12 hours) is listed as “not regulated”. Also, the “ALP and Fgf18 mRNA” value in data set [4] was “increments”. Further, in the data set on Wnt/β-catenin pathway [5], the “effect on Wnt/β-catenin pathway in HEK293 cells” value is “very marginal”. For the same molecule, the “enhancement of Idbf-Dvl-1 binding” value with Wnt/β-catenin pathway [5] (Wnt3a treatment, FIG. 20) is “not observed”.
